Reference: patent publication US20210032365A1 (Chugai, published 2021)

T1: human C1s (human, UniProt P09871 16-688)
T1 construct: also called hC1s; serum-derived human C1s (CompTech)
T1 sequence: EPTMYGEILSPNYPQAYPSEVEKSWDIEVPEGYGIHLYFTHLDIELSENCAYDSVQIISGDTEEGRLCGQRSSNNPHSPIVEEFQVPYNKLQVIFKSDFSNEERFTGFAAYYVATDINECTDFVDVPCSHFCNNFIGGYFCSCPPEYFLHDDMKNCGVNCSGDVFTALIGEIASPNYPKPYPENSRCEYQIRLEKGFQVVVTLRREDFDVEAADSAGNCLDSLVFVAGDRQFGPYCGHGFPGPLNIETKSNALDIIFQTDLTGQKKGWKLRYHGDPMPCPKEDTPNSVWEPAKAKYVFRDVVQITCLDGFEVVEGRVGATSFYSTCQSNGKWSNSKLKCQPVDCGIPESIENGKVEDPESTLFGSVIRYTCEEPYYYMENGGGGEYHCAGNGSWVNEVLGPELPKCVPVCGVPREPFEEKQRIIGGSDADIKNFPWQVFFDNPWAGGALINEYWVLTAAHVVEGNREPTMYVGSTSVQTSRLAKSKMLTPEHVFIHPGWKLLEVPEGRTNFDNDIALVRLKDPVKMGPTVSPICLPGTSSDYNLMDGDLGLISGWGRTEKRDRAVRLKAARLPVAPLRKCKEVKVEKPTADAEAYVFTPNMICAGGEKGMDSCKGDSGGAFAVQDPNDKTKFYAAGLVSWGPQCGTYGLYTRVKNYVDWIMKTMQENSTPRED

T2: human C1s (human, UniProt P09871 16-688)
T2 construct: Analyte in the Biacore assays; also called hC1s; serum-derived human C1s (CompTech)
T2 sequence: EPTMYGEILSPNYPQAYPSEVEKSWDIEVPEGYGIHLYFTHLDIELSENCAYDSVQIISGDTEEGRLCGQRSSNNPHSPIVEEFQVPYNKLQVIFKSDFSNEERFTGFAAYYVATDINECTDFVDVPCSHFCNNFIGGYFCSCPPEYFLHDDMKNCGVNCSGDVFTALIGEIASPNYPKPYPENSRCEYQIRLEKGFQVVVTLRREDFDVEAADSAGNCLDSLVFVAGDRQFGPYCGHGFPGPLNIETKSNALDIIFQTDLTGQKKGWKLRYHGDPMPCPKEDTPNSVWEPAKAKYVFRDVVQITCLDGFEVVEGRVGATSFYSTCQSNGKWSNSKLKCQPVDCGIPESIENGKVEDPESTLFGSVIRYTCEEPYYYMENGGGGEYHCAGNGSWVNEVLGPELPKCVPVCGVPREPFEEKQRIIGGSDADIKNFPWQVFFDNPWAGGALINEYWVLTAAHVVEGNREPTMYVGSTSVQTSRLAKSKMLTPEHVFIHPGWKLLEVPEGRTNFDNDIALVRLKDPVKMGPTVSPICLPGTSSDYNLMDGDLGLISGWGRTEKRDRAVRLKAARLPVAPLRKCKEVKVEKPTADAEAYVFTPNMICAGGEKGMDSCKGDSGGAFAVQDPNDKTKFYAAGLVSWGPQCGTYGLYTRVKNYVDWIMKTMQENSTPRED


Legend:
human C1s [1] = molecular target: T1, human C1s; experiment: SPR, Ab captured; pH 7.4, 1.2 mM Ca
Procedure: (§1) All variants were transiently expressed and purified by the method described above. The binding affinity of each histidine-substituted variant at pH 7.4 and pH 5.8 was determined at 37 degrees C. using Biacore T200 instrument (GE Healthcare). Recombinant Protein A/G (Pierce) was immobilized onto all flow cells of a CM4 sensor chip using an amine coupling kit (GE Healthcare). Antibodies and analytes were prepared in 7(+) buffer (20 mM ACES, 150 mM NaCl, 1.2 mM CaCl2, 0.05% Tween 20, 0.005% NaN3, pH 7.4), 5(+) buffer (20 mM ACES, 150 mM NaCl, 1.2 mM CaCl2, 0.05% Tween 20, 0.005% NaN3, pH 5.8), or 5(−) buffer (20 mM ACES, 150 mM NaCl, 3 micro M CaCl2, 0.05% Tween 20, 0.005% NaN3, pH 5.8). Each antibody was captured onto the sensor surface by protein A/G. Antibody capture levels were aimed at 200 resonance unit (RU). Serum-derived human C1s (CompTech) or recombinant C1s prepared in EXAMPLE 1 was injected at 50 nM, followed by dissociation. The sensor surface was regenerated in each cycle with 10 mM Glycine-HCl, pH 1.5. […] The ratio of KD 5.8+ to KD 7.4+(“KD 5+/7+”) and that of KD 5.8− to KD 7.4+(“KD 5−/7+”) were calculated. When the KD 5+/7+ or KD 5−/7+ of a variant is larger than that of the parent antibody IPN009VH2-SG4GK/IPN009VK3-SK1, that variant is considered to be “pH”- or “pH and Ca”-dependent, respectively. When binding response in 5(+) buffer and/or in 5(−) buffer of a variant is much lower than that of IPN09VH2/IPN009VK3, that variant is also considered as “pH”- and/or “pH and Ca”-dependent. Therefore, such mutations are effective to generate “pH”- and/or “pH and Ca”-dependent antibody. To further enhance “pH” and/or “pH and Ca” dependency, a combination of histidine mutations was conducted. Antibodies with combinations of histidine mutations were evaluated using Biacore by the method described above.

human C1s [2] = molecular target: T1, human C1s; experiment: SPR; KD pH 5.8 1.2 mM Ca / KD pH 7.4 1.2 mM Ca
Procedure: as §1

human C1s [3] = molecular target: T1, human C1s; experiment: SPR, Ab captured; pH 5.8, 1.2 mM Ca
Procedure: as §1

human C1s [4] = molecular target: T1, human C1s; experiment: SPR; KD pH 5.8 3 uM Ca / KD pH 7.4 1.2 mM Ca
Procedure: as §1

human C1s [5] = molecular target: T1, human C1s; experiment: SPR, Ab captured; pH 5.8, 3 uM Ca
Procedure: as §1

human C1s [6] = molecular target: T2, human C1s; experiment: SPR (Biacore T200, 37C), Ab captured on protein A/G; pH 5.8, 1.2 mM Ca
Procedure: (§2) Each antibody was captured onto the sensor surface by protein A/G. Antibody capture levels were aimed at 200 resonance unit (RU). Serum-derived human C1s (CompTech) or recombinant C1s prepared in EXAMPLE 1 was injected at 50 nM, followed by dissociation. The sensor surface was regenerated in each cycle with 10 mM Glycine-HCl, pH 1.5. […] The ratio of KD 5.8+ to KD 7.4+(“KD 5+/7+”) and that of KD 5.8− to KD 7.4+(“KD 5−/7+”) were calculated. When the KD 5+/7+ or KD 5−/7+ of a variant is larger than that of the parent antibody IPN009VH2-SG4GK/IPN009VK3-SK1, that variant is considered to be “pH”- or “pH and Ca”-dependent, respectively. When binding response in 5(+) buffer and/or in 5(−) buffer of a variant is much lower than that of IPN09VH2/IPN009VK3, that variant is also considered as “pH”- and/or “pH and Ca”-dependent. Therefore, such mutations are effective to generate “pH”- and/or “pH and Ca”-dependent antibody. To further enhance “pH” and/or “pH and Ca” dependency, a combination of histidine mutations was conducted. Antibodies with combinations of histidine mutations were evaluated using Biacore by the method described above.
(§3) C1_1IPN92H0033 (SEQ ID NO: 17)-SG4GK/IPN93L0024 (SEQ ID NO: 18)-SK1 (IPN92H0033/IPN93L0024) was selected for further optimization. Histidine, Lysine, Arginine, aspartic acid, glutamic acid, and glutamine scanning was conducted for CDRs and certain positions of FRs of IPN92H0033/IPN93L0024. Variants with a mutation were generated and purified, and evaluated using Biacore by the method mentioned above. All variants were evaluated using Biacore as mentioned above. Mutations that improved “pH” and/or “pH and Ca” dependency were selected for the combination.

human C1s [7] = molecular target: T2, human C1s; experiment: SPR (Biacore T200, 37C), Ab captured on protein A/G; pH 5.8, 3 uM Ca
Procedure: as §2, §3

human C1s [8] = molecular target: T2, human C1s; experiment: SPR; KD at pH 5.8 (1.2 mM Ca) over KD at pH 7.4 (1.2 mM Ca)
Procedure: as §2, §3

human C1s [9] = molecular target: T2, human C1s; experiment: SPR; KD at pH 5.8 (3 uM Ca) over KD at pH 7.4 (1.2 mM Ca)
Procedure: as §2, §3

| Kd (human C1s [1]) [nM] | koff (human C1s [1]) [s⁻¹] | kon (human C1s [1]) [M⁻¹ s⁻¹] | KD 5(+)/7(+) (human C1s [2]) | Kd (human C1s [3]) [nM] | koff (human C1s [3]) [s⁻¹] | kon (human C1s [3]) [M⁻¹ s⁻¹] | KD 5(-)/7(+) (human C1s [4]) | Kd (human C1s [5]) [nM] | koff (human C1s [5]) [s⁻¹] | kon (human C1s [5]) [M⁻¹ s⁻¹] | Kd (human C1s [6]) [nM] | koff (human C1s [6]) [s⁻¹] | kon (human C1s [6]) [M⁻¹ s⁻¹] | Kd (human C1s [7]) [nM] | koff (human C1s [7]) [s⁻¹] | kon (human C1s [7]) [M⁻¹ s⁻¹] | KD 5(+)/7(+) (human C1s [8]) | KD 5(-)/7(+) (human C1s [9]) | Binder |
| --- | --- | --- | --- | --- | --- | --- | --- | --- | --- | --- | --- | --- | --- | --- | --- | --- | --- | --- | --- |
| 13.9 | 0.00476 | 343000 | 1 | 14.1 | 0.00751 | 534000 | 0.5 | 6.66 | 0.00351 | 528000 |  |  |  |  |  |  |  |  | C1_IPN009VH2-SG4GK/IPN93L0028-SK1 (antibody, human IgG4 S228P, kappa, name in Kabat numbering, V domains shown, also called IPN009VH2/IPN93L0028) VH: EVMLVESGGGLVKPGGSLRLSCAASGFTFSNYAMSWVRQAPGKGLEWVATISSGGSHTYYLDSVKGRFTISRDNSKDTLYLQMNSLRAEDTALYYCARLFTGYAMDYWGQGTLVTVSS VL: QIVLTQSPATLSLSPGERATLSCTASSSVSSSYLHWYQQKPGKAPKLWIYSTSNLASGVPSRFSGSGSGTDYTLTISSLQPEDFATYYCHQYHRHPPITFGQGTKLEIKR |
|  |  |  |  |  |  |  |  |  |  |  | 6.57 | 0.00346 | 527000 | 4.65 | 0.00477 | 1.03e+06 | 4.2 | 2.94 | C1_IPN92H0286-SG4GK/IPN93L0205-SK1 (antibody, human IgG4 S228P, kappa, name in Kabat numbering, Substitutions from IPN009VH2 / IPN009VK3, Kabat numbering; also called IPN92H0286/IPN93L0205) heavy: not shown light: QIVLTQSPATLSLSPGERATLSCTASSSVSSSRLHWYQQKPGKAPKLWIYSTSNLASGVPSRFSGSGSGTDYTLTISSLQPEDFATYYCHQYHRHPPITFGQGTKLEIKRTVAAPSVFIFPPSDEQLKSGTASVVCLLNNFYPREAKVQWKVDNALQSGNSQESVTEQDSKDSTYSLSSTLTLSKADYEKHKVYACEVTHQGLSSPVTKSFNRGEC |
|  |  |  |  |  |  |  |  |  |  |  | 21 | 0.0198 | 945000 | 6.79 | 0.00533 | 784000 | 11.6 | 3.75 | C1_IPN92H0288-SG4GK/IPN93L0212-SK1 (antibody, human IgG4 S228P, kappa, name in Kabat numbering, V domains shown, VL substitutions from IPN009VK3, Kabat numbering; also called IPN92H0288/IPN93L0212) VH: EVMLVESGGGLVKPGGSLRLSCAASGFTFSNYAMSWVRQAPGKGLEWVATISSGGSHTYELDSVDGRFTISRDNSKDTLYLQMNSLRAEDTALYYCARLFTKHAMDYWGQGTLVTVSS VL: QIVLTQSPATLSLSPGERATLSCTASSEVSESRLHWYQQKPGKAPKLWIYSTSNLASGVPSRFSGSGSGTDYTLTISSLQPEDFATYYCHQYYRLHPITFGQGTKLEIKR |
